Assay results: patent publication US20200223906A1 (Adimab, published 2020)
Positions count from the first letter of the chain named.

B1: ADI-18930 (antibody, V domains shown)
VH: QVQLVQSGAEVKKPGSSVKVSCKASGGTFSGYHISWVRQAPGQGLEWMGGIIHLFGTVNYAPKFQGRVTITADASTGTAYMELNSLMSEDTAVYYCARDAYEVWTGSYLPPFDYWGQGTLVTVSS
VL: EIVLTQSPGTLSLSPGERVTLSCRASQTVTSSYLAWYQQKPGQAPRLLIYGAFTRATDIPDRFSGSGSGTDFTLTISRLEPEDSAVYYCQQYGSSFLTFGGGTKVDIK
notes: full-length IgG from yeast
B2: ADI-18928 (antibody, V domains shown)
VH: QVQLVQSGAEVKRPGSSVRVSCKASGGTFRKYAISWVRQARGQGLEWMGGIIPMSGPPSYAQKFQGRVTITADESTSTVYMELSSLRFEDTAVYFCARDIEWFVLMDPITSYYPMDVWGQGTTVTVSS
VL: QSVVTQEPSLTVSPGGTVTLTCGSSTGGVTSGHHTYWFQQKPGQAPRTLIYDTTNTHSWTPARFAGSLLGGKAALTLSGAQPEDEADYYCLLSYSGARPVFGGGTKLTVL
notes: full-length IgG from yeast
B3: ADI-18879 (antibody, V domains shown)
VH: EVQLLESGGEVKKPGASVKVSCRASGYTFRNYGLTWVRQAPGQGLEWMGWISAYNGNTNYAQKFQGRVTLTTDTSTSTAYMELRSLRSDDTAVYFCARDVPGHGAAFMDVWGTGTTVTVSS
VL: DIQLTQSPLSLPVTLGQPASISCRSSQSLEASDTNIYLSWFQQRPGQSPRRLIYKISNRDSGVPDRFSGSGSGTHFTLRISRVEADDVAVYYCMQGTHWPPAFGQGTKVDIK
notes: full-length IgG from yeast
B4: ADI-18903 (antibody, V domains shown)
VH: B3 VH with L5V
VL: B3 VL with D1E, I2T, Q3T, V109L, D110E
notes: full-length IgG from yeast
B5: ADI-18921 (antibody, V domains shown)
VH: QVQLVQSGSEVKKPGASVRLSCKVAGYSLSELSMHWVRQSPGKGLEWLGAFDHEDAEAIYAPRFQGRITMTADTSTDTAYMELSSLRSEDTAVYYCATPTPVGATDYWGQGTLVTVSS
VL: DIQMTQSPSSLSASVGDRVTITCRASQSISSYLNWYQQKPGKAPKLLIYAASSLQRGGPSRFSGSGSGTDFTLTISSLQPEDFATYYCQQSYIIPYTFGQGTKVDIK
notes: full-length IgG from yeast
B6: ADI-18927 (antibody, V domains shown)
VH: QVQLVQSGAEVKKPGASVKVSCKASGYTFTDYFIHWVRQAPGEGLEWMGWVNPLSDNTKYSQKFQGRVTMSTDTSITTAYMYLSRLRFDDTAVYFCASQSSPYTPGALDVWGQGTTVTVSS
VL: DIQLTQSPSSLPASVGDRVTITCRASQNIGNNLAWYQQKAGRAPKLLIYSASNFHSGVPSRFIGSGSGTVFTLTISSLQPEDFATYFCQQSFTPQFTFGPGTKVEIK
notes: full-length IgG from yeast
B7: ADI-18875 (antibody, V domains shown)
VH: QVQLQQWGAGLLKPSETLSLTCAVYGGSFSGYSWSWIRQTPGKGLEWIGEINHRGSTNYNPSLKSRVTMSVDTSQNQISLRVTSVTAADTAVYFCAGTNYGEVNTSNQYFFGMDVWGQGTTVTVSS
VL: DIQVTQSPSSLSASVGDRVTITCRASQSIGTYLNWYQQKPGKPPKLLIYAASNLESGVPSSFSGSGSGTHFTLTISSLQPEHFATYYCQQSYSTPLTFGGGTKVEIK
notes: full-length IgG from yeast; also called Antibody Number 232; Ab # 232

Assays:
[1] = molecular target: RSV F protein of subtype A (strain A2) on recombinant mKate-RSV virus (Respiratory syncytial virus subtype A …, UniProt P03420 26-574); assay: cell-based or functional assay
[2] = molecular target: RSV F protein of subtype B (18537) on recombinant mKate-RSV virus (Respiratory syncytial virus subtype B …, UniProt P13843 26-574); assay: cell-based or functional assay
[3] = molecular target: T1, RSV F subtype A, furin-cleaved ectodomain stabilized in the prefusion conformation (DS-Cav1) (Respiratory syncytial virus subtype A, UniProt P03420 26-524); assay: BLI, IgG on AHQ sensor, 100 nM antigen
T1 construct: extracellular domain; Trimeric soluble antigen; also called Prefusion subtype A

[4] = molecular target: T2, RSV F subtype B, furin-cleaved ectodomain stabilized in the prefusion conformation (DS-Cav1) (Respiratory syncytial virus subtype B); assay: BLI, IgG on AHQ sensor, 100 nM antigen
T2 construct: extracellular domain; Trimeric soluble antigen; also called Prefusion subtype B

Binder	Neut IC50 (µg/ml) subtype A [1] [µg/mL]	Neut IC50 (µg/ml) subtype B [2] [µg/mL]	Kd [3] [nM]	Kd [4] [nM]
B1	0.013	0.051	0.387	0.372
B2	0.034	0.062	0.449	0.515
B3	0.041	0.103	0.312	0.358
B4	0.036	0.118	0.324	0.272
B5	1.7	1.17	5.75	–
B6	0.022	0.067	3.58	2.99
B7	0.04	0.035	0.736	0.764
